Measured values reported in publication PMC2756588.

T1: Pin3, Q06449
T1 sequence (Q06449 53-122, looked up): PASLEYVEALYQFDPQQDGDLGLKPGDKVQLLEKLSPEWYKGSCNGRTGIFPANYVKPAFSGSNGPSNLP

T2: Pex13, P80667
T2 sequence (P80667 295-386, looked up): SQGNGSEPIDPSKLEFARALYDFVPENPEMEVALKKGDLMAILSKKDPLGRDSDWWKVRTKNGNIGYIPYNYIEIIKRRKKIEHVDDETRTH

T3: Nbp2, Q12163
T3 sequence (Q12163 103-180, looked up): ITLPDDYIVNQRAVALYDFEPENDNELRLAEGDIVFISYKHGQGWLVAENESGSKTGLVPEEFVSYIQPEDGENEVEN

T4: Lsb1, P53281
T4 sequence (P53281 45-122, looked up): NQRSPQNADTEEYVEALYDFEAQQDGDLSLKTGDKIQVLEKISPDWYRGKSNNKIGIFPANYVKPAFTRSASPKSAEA

T5: Cdc25, P04821
T5 sequence (P04821 50-136, looked up): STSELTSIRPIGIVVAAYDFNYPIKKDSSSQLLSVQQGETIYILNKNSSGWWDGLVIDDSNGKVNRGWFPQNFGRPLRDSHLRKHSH

T6: Fus1, P11710
T6 sequence (P11710 432-512, looked up): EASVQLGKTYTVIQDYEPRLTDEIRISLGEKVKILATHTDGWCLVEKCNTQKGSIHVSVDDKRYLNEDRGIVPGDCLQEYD

T7: Bzz1-2, P38822
T7 sequence (P38822 568-633, looked up): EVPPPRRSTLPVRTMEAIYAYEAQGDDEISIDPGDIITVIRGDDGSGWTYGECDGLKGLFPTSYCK

T8: Bbc1, P47068
T8 sequence (P47068 1-78, looked up): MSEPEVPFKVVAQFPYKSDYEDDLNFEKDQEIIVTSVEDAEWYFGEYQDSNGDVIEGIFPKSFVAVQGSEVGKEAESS

T9: Myo5, Q04439
T9 sequence (Q04439 1072-1160, looked up): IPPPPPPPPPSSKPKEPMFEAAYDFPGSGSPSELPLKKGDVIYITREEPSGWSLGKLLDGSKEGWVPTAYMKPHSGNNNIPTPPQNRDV

T10: Cyk3, Q07533
T10 sequence (Q07533 1-83, looked up): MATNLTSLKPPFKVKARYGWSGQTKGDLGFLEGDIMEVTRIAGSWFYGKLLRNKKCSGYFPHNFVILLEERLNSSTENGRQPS

T11: Abp1, P15891
T11 sequence (P15891 535-592, looked up): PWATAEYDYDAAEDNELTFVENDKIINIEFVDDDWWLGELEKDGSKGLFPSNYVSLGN

T12: Hse1, P38753
T12 sequence (P38753 208-285, looked up): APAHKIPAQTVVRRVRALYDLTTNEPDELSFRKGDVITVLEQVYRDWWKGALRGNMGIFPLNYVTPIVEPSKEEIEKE

T13: Bzz1-1, P38822
T13 sequence (P38822 478-572, looked up): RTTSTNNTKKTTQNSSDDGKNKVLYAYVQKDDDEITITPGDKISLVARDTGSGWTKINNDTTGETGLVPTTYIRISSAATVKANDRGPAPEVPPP

T14: Boi2, P39969
T14 sequence (P39969 32-116, looked up): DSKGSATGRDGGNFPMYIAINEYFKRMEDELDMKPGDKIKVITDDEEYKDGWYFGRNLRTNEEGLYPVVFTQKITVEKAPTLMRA

T15: Boi1, P38041
T15 sequence (P38041 1-86, looked up): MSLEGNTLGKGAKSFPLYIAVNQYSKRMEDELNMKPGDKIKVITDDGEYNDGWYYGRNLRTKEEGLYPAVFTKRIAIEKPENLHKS

T16: Bud14, P27637
T16 sequence (P27637 247-328, looked up): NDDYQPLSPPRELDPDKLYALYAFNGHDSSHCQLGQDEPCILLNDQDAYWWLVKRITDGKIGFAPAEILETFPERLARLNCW

T17: Sla1-3, P32790
T17 sequence (P32790 344-424, looked up): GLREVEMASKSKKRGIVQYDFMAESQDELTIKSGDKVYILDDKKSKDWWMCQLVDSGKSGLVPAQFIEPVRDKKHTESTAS

T18: Sla1-2, P32790
T18 sequence (P32790 60-140, looked up): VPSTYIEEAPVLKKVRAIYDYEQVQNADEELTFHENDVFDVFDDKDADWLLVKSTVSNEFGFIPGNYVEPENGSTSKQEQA

T19: Lsb4, P32793
T19 sequence (P32793 402-468, looked up): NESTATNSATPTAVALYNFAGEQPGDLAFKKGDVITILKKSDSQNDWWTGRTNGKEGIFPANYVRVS

T20: Lsb3, P43603
T20 sequence (P43603 385-451, looked up): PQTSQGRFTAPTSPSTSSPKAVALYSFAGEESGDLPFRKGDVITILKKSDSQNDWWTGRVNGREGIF

T21: Hof1, Q05080
T21 sequence (Q05080 590-669, looked up): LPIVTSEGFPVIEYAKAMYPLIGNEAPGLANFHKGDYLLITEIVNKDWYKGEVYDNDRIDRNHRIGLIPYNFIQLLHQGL


Tests used:
Test in all cases: SPOT array
Pin3, Q06449 = molecular target: T1, Pin3, Q06449; details: median of control spots 2171
Pex13, P80667 = molecular target: T2, Pex13, P80667; details: median of control spots 1341
Nbp2, Q12163 = molecular target: T3, Nbp2, Q12163; details: median of control spots 357
Lsb1, P53281 = molecular target: T4, Lsb1, P53281; details: median of control spots 388
Cdc25, P04821 = molecular target: T5, Cdc25, P04821; details: median of control spots 969
Fus1, P11710 = molecular target: T6, Fus1, P11710; details: median of control spots 1200
Bzz1-2, P38822 = molecular target: T7, Bzz1-2, P38822; details: median of control spots 4538
Bbc1, P47068 = molecular target: T8, Bbc1, P47068; details: median of control spots 796
Myo5, Q04439 = molecular target: T9, Myo5, Q04439; details: median of control spots 471
Myo3, P36006 = details: median of control spots 468
Cyk3, Q07533 = molecular target: T10, Cyk3, Q07533; details: median of control spots 1451
Abp1, P15891 = molecular target: T11, Abp1, P15891; details: median of control spots 935
Hse1, P38753 = molecular target: T12, Hse1, P38753; details: median of control spots 1727
Bzz1-1, P38822 = molecular target: T13, Bzz1-1, P38822; details: median of control spots 4446
Rvs167, P39743 = details: median of control spots 2707
Bem1-1, P29366 = details: median of control spots 4282
Boi2, P39969 = molecular target: T14, Boi2, P39969; details: median of control spots 1161
GST = details: median of control spots 978
Sho1, P40073 = details: median of control spots 1148
Boi1, P38041 = molecular target: T15, Boi1, P38041; details: median of control spots 1162
Bud14, P27637 = molecular target: T16, Bud14, P27637; details: median of control spots 956
Sla1-3, P32790 = molecular target: T17, Sla1-3, P32790; details: median of control spots 5475
Bem1-2, P29366 = details: median of control spots 4347
Sla1-2, P32790 = molecular target: T18, Sla1-2, P32790; details: median of control spots 712
Lsb4, P32793 = molecular target: T19, Lsb4, P32793; details: median of control spots 397
Lsb3, P43603 = molecular target: T20, Lsb3, P43603; details: median of control spots 406
Hof1, Q05080 = molecular target: T21, Hof1, Q05080; details: median of control spots 4086

Chain of Rvs167, P39743 (P39743 419-482): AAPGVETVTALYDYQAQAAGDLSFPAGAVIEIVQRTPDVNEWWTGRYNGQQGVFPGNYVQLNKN
Chain of Sho1, P40073 (P40073 287-367): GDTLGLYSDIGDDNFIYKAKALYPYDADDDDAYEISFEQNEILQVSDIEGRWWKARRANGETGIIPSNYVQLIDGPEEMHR
Chain of Bem1-2, P29366 (P29366 139-227): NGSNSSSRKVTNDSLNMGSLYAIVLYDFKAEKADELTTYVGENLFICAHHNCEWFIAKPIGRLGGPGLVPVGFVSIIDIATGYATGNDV
Chain of Bem1-1, P29366 (P29366 55-141): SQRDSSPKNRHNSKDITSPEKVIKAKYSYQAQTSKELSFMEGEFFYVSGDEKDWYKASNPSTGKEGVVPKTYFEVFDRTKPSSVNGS

| Binder | SPOT intensity (Pin3, Q06449) | SPOT intensity (Pex13, P80667) | SPOT intensity (Nbp2, Q12163) | SPOT intensity (Lsb1, P53281) | SPOT intensity (Cdc25, P04821) | SPOT intensity (Fus1, P11710) | SPOT intensity (Bzz1-2, P38822) | SPOT intensity (Bbc1, P47068) | SPOT intensity (Myo5, Q04439) | SPOT intensity (Myo3, P36006) | SPOT intensity (Cyk3, Q07533) | SPOT intensity (Abp1, P15891) | SPOT intensity (Hse1, P38753) | SPOT intensity (Bzz1-1, P38822) | SPOT intensity (Rvs167, P39743) | SPOT intensity (Bem1-1, P29366) | SPOT intensity (Boi2, P39969) | SPOT intensity (GST) | SPOT intensity (Sho1, P40073) | SPOT intensity (Boi1, P38041) | other results |
| --- | --- | --- | --- | --- | --- | --- | --- | --- | --- | --- | --- | --- | --- | --- | --- | --- | --- | --- | --- | --- | --- |
| NQARKPFLLPATELS | 4 | 0 | 4 | 576 | 16 | 0 | 0 | 30 | 1 | 1 | 3 | 18 | 4 | 0 | 0 | 0 | 0 | 2 | 38 | 3 | SPOT intensity (Bud14, P27637): 19; SPOT intensity (Sla1-3, P32790): 2; SPOT intensity (Bem1-2, P29366): 1; SPOT intensity (Sla1-2, P32790): 1; SPOT intensity (Lsb4, P32793): 0; SPOT intensity (Lsb3, P43603): 0; SPOT intensity (Hof1, Q05080): 5 |
| YYNRQELALPKRMSS | 327 | 16 | 1 | 819 | 0 | 6 | 4 | 8 | 5 | 11 | 3 | 14 | 2 | 0 | 21 | 0 | 1 | 3 | 9 | 1 | SPOT intensity (Bud14, P27637): 3; SPOT intensity (Sla1-3, P32790): 7; SPOT intensity (Bem1-2, P29366): 0; SPOT intensity (Sla1-2, P32790): 2; SPOT intensity (Lsb4, P32793): 45; SPOT intensity (Lsb3, P43603): 24; SPOT intensity (Hof1, Q05080): 1 |
| NRPAIRIPSLKKPAL | 9 | 5 | 2 | 467 | 5 | 1 | 0 | 40 | 2 | 3 | 0 | 74 | 20 | 3 | 0 | 1 | 0 | 1 | 39 | 1 | SPOT intensity (Bud14, P27637): 13; SPOT intensity (Sla1-3, P32790): 14; SPOT intensity (Bem1-2, P29366): 12; SPOT intensity (Sla1-2, P32790): 0; SPOT intensity (Lsb4, P32793): 6; SPOT intensity (Lsb3, P43603): 0; SPOT intensity (Hof1, Q05080): 13 |
| KWVRRPKLMTPLTFS | 53 | 6 | 3 | 355 | 0 | 54 | 0 | 38 | 6 | 6 | 1 | 67 | 16 | 1 | 0 | 0 | 0 | 1 | 19 | 1 | SPOT intensity (Bud14, P27637): 11; SPOT intensity (Sla1-3, P32790): 44; SPOT intensity (Bem1-2, P29366): 5; SPOT intensity (Sla1-2, P32790): 0; SPOT intensity (Lsb4, P32793): 2; SPOT intensity (Lsb3, P43603): 5; SPOT intensity (Hof1, Q05080): 8 |
